From patent US20160130575
pKd: −log10 of the molar value.

Biological target: alpha-thrombin (Homo sapiens) (UniProt P00734+P00734)
Assay: flow
Details: bead-based fluorescence; measured here; sequence not given

Row | Substance | pKd
1 | Tasset thrombin aptamer | 7.98
2 | Bock thrombin aptamer | 8.68
